This is an account of results in publication PMC5028891 (Scientific Reports, 2016).

To fix the notation:
B1: unnamed (parent)
chain 1: MASMGLQVMGIALAVLGWLAVMLCCALPMWRVTAFIGSNIVTSQTIWEGLWMNCVVQSTGQMQCKVYDSLLALPQDLQAARALVIISIIVAALGVLLSVVGGKCTNCLEDESAKAKTMIVAGVVFLLAGLMVIVPVSWTAHNIIQDFYNPLVASGQKREMGASLYVGWAASGLLLLGGGLLCCNCPPRTDKPYSAKYSAARSAAASNYV
chain 2: RCVLTVPSTDIEKEILDLAAATERLNLTDALNSNPAGNLYDWRSSNSYPWTQKLNLHLTITATGQKYRILASKIVDFNIYSNNFNNLVKLEQSLGDGVKDHYVDISLDAGQYVLVMKANSSYSGNYPYSILFQKF

The test covers variants of B1. Description: pull-down. To be noted: with partner chain of the complex shown; n = 4; parent: 1; read off a plot.
As to chain 1 MASMGLQVMGIALAVLGWLAVMLCCALPMWRVTAFIGSNDVTSQTIWEGLWMNCVVQSTGQMQCKVYDSLLALPQDLQAARALVIISIIVAALGVLLSVVGGKCTNCLEDESAKAKTMIVAGVVFLLAGLMVIVPVSWTAHNIIQDFYNPLVASGQKREMGASLYVGWAASGLLLLGGGLLCCNCPPRTDKPYSAKYSAARSAAASNYV [chain 1 I40D], the ratio to parent came to 0.21.

Consider chain 1 MASMGLQVMGIALAVLGWLAVMLCCALPMWRVTAFIGSNAVTSQTIWEGLWMNCVVQSTGQMQCKVYDSLLALPQDLQAARALVIISIIVAALGVLLSVVGGKCTNCLEDESAKAKTMIVAGVVFLLAGLMVIVPVSWTAHNIIQDFYNPLVASGQKREMGASLYVGWAASGLLLLGGGLLCCNCPPRTDKPYSAKYSAARSAAASNYV [chain 1 I40A], for which the ratio to parent is 1.1.
